How the values were obtained:
[1] = molecular target: T1, human E-selectin, cell-surface expressed (human, UniProt P16581 22-610); experiment: cell-based or functional assay
T1 sequence: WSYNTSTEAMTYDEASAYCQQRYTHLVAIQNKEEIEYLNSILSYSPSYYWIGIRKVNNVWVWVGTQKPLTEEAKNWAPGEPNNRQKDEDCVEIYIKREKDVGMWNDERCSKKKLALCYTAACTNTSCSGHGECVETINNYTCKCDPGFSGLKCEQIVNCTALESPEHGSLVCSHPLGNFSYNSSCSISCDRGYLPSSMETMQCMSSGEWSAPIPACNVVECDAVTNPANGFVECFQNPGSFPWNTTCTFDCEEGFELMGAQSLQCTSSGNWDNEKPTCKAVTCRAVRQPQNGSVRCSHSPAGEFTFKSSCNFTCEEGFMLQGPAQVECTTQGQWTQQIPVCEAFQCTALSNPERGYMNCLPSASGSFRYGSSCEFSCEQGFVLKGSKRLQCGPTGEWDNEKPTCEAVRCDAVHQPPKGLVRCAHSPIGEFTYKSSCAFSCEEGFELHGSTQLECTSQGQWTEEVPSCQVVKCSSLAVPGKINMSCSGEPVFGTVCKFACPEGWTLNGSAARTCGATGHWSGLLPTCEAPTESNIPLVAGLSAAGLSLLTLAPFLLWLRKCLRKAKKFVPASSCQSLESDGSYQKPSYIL

[2] = molecular target: T2, recombinant histidine-tagged human E-selectin (Sino Biologicals; 13025-H08H) (human, UniProt P16581 22-556); experiment: cell-based or functional assay
T2 sequence (looked up): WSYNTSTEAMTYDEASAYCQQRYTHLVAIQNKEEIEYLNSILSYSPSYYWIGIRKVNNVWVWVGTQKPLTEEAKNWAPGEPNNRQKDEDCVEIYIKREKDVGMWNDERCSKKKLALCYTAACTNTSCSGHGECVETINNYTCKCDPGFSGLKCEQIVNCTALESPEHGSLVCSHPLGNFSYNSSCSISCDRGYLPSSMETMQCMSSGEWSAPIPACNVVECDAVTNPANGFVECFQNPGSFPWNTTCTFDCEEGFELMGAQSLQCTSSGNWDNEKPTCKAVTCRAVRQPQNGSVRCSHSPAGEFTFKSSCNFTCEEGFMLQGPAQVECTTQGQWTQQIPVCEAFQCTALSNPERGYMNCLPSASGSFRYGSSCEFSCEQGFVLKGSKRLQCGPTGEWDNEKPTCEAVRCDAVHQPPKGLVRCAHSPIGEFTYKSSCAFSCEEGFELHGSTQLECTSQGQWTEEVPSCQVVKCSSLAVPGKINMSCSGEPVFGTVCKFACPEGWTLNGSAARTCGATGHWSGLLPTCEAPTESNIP

[3] = molecular target: T2, recombinant histidine-tagged human …; experiment: competition ELISA on soluble E-selectin vs sialyl Lewis A, further assays
Description: (§1) Recombinant histidine-tagged E-selectin; cynomolgus monkey E-selectin (Sino Biologicals; 190169-C08H) and human E-selectin (Sino Biologicals; 13025-H08H) stock solutions were prepared to a final concentration of 3 μg/mL in phosphate buffered saline (PBS) without calcium and magnesium. One hundred μL per well of the diluted recombinant E-selectin protein was added into a Ni-NTA HisSorb 96 well plate (Qiagen, 35061) and plates were incubated on an orbital shaker at room temperature for 2 hours. Sialyl Lewis A polyacrylamide biotin, a synthetic E-selectin ligand (GlycoTech corporation 01-044), was conjugated to streptavidin HRP (horse radish peroxidase) (Ultra Streptavidin HRP, Thermo Scientific N504) and diluted in assay diluent containing 2 mM calcium chloride (BD OptEIA buffer; BD Biosciences, 555213).
(§2) Following the incubation, the plates were washed 5 times with 200 μL of wash buffer containing 2 mM of calcium chloride (50 mM TRIS [trisaminomethane]; 150 mM sodium chloride, 0.05% polysorbate 20, pH 7.4; 2 mM of calcium chloride). […] The final antibody concentration ranged from 200 nM to 0.09 nM and the final concentration of HRP conjugated Sialyl Lewis A was 5 μg/mL. […] Reactions were stopped with 100 μl of 2M sulfuric acid and absorbance read at 450 nm (Spectramax M5e). Data were analyzed and graphed using GraphPad Prism software (Version 8.0.2).

[4] = molecular target: T3, recombinant histidine-tagged cynomolgus monkey E-selectin (Sino Biologicals; 190169-C08H) (cynomolgus monkey, UniProt A0A2K5U7H9 22-554); experiment: as above
T3 construct: also called recombinant cynomolgus monkey E-selectin
T3 sequence: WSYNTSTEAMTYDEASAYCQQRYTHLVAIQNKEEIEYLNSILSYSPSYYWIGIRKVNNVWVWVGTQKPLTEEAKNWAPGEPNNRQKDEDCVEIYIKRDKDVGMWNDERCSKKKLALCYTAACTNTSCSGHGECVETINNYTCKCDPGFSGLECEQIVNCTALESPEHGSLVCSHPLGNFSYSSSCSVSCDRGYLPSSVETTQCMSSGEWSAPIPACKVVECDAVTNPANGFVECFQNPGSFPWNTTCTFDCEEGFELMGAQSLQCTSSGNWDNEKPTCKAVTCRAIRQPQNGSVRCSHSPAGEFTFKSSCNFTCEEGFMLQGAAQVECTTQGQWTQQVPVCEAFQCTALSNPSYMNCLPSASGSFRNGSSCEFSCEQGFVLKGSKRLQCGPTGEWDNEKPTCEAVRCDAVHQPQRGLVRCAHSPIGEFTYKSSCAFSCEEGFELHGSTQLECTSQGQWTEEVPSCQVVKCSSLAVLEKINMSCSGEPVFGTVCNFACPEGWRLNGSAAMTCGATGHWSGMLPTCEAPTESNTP
Description: as §1, §2

- Flow adhesion neutralization of HL-60 cells, CHO cells, human E-selectin, IC50 [1]: 4.25 to 4.56 nM
- Neutralization of Human Neutrophils, CHO cells, human E-selectin, flow, IC50 [1]: 2.87 to 4.65 nM
- Static adhesion neutralization of HL-60 cells, CHO cells, human E-selectin, IC50 [1]: 3.36 to 4.7 nM
- Flow adhesion neutralization of HL-60 cells, soluble recombinant human E-selectin, IC50 [2]: 13.3 to 15.9 nM
- Neutralization of SCD patient cells, soluble human recombinant protein, flow, IC50 (mean) [2]: 12.4 nM
- IC50 [3]: 2.91 nM
- IC50 [4]: 2.45 nM
B1: optimized anti-E-selectin antibody 1444 (antibody, human IgG1, kappa, V domains shown)
VH: EVQLVESGGGLVQPGGSLRLSCAASGYAIRSAYMHWVRQAPGKGLEWVARIDPANGNTIYVDSVTGRFTISADNAKNSAYLQMNSLRAEDTAVYYCAMDLYSTSEYWGQGTLVTVSS
VL: DIQMTQSPSSLSASVGDRVTITCKTSQNIERYLNWYQQKPGKAPKLLIYAASSLQSGVPSRFSGSGSGTDFTLTISSLQPEDFATYFCLQDNAWPLTFGQGTKVEIKR
notes: effector-null human IgG1, kappa
